We go through three molecules from patent publication US20150098947A1 (RESEARCH DEVELOPMENT FOUNDATION, published 2015).

In assay [1] the target is T1, human Olfml3-FLAG (human, UniProt Q9NRN5 22-406, limits assumed).
T1 construct: Screening antigen of the hybridoma ELISA; the tag is written last only by convention; not shown: FLAG tag
T1 sequence (looked up): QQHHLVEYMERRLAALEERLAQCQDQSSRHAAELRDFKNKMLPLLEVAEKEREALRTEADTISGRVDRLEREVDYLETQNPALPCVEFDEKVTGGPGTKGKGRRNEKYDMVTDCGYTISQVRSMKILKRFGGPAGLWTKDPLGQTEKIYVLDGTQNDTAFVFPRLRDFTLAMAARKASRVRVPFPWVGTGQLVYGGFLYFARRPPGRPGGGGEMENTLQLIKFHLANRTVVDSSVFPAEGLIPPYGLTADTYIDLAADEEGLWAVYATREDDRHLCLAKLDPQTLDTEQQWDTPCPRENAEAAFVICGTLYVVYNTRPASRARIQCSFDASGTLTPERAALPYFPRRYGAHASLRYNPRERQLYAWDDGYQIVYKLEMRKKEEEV
Kind of assay: hybridoma screening ELISA. How it is done: The inventors produced a panel of monoclonal antibodies against a recombinant Olfml-3 protein. Three antibodies against human Olfml3 were generated using standard techniques by injecting simultaneously two 14-aa long peptides comprising epitopes in the coiled-coil (peptide A, 86-99 aa: […]; SEQ ID NO: 5) and the olfactomedin-like domains (peptide B, 390-403 aa: […]; SEQ ID NO: 6) as immunogens in rats (Aurrand-Lions et al., 1996). Briefly, human Olfml3 peptides A and B coupled to 100 μg KLH carrier protein (keyhole limpet hemocyanin, Pierce) and mixed with adjuvant 56322 (Sigma), were used to immunize female Wister rats. In total, three injections were performed every 9 days. Two days after a final s.c. injection of human Olfml3 peptides, blasts from draining lymph nodes were fused to Sp2/0 cells, and hybridomas were selected in HAT-containing medium (Life Technologies). Growing clones were screened by ELISA for the production of monoclonal antibodies recognizing specifically human Olfml3-FLAG. Positive clones were subcloned, rescreened, and further tested. Antibodies were purified on protein G-Sepharose columns (GE HealthCare) according to the manufacturer instructions. Two Olfml3-binding antibodies, 46A9BO and 9F8BO, are of IgG2b isotype subclass and one, Z14A7, is of IgG2c isotype subclass. The 46A9BO and 9F8BO monoclonal antibodies were used for in vivo tumor graft models.
On the technique in general: ELISA stands for enzyme-linked immunosorbent assay.

For assay [2], the target named is T2, Olfml-3 peptide A (human Olfml3 86-99 aa, coiled-coil domain) (human).
T2 peptide: RVDRLEREVDYLET
The assay can be described thus: peptide binding test (ELISA).

Assay [3] has as its target T3, Olfml-3 peptide B (human Olfml3 390-403 aa, olfactomedin-like domain) (human).
T3 peptide: GYQIVYKLEMRKKE
Kind of assay: peptide binding test (ELISA).

B1: 46A9BO monoclonal antibody (glycosylated) (antibody, IgG2b, V domains shown)
VH: AVHLVESGGGLVQPKESLKISCAASGFTFSNAAMYWVRQAPGKGLEWVARIRTKPNDYATYYVDSVKGRFTISRDDSQSMVYLQMDNLKTEDTAMYYCTAFTEPDYWGQGVMVTVSS
VL: LIQPPSASVTLGSTVSLTCVGDELSKTYAHWYQQKPDKTIVSVIYKDSERPSGISDRFSGSSSGTTATLTIHGTLAEDEADYYCLSTYSDDNLPVFGGGTKLTVL
notes: also called mAb 2; anti-Olfml-3B
For B1, the binding result in assay [1] was “binds”; in assay [2], “no binding”; in assay [3] it was “binds”.

B2: deglycosylated 46A9BO antibody (antibody, V domains shown)
VH: AVHLVESGGGLVQPKESLKISCAASGFTFSNAAMYWVRQAPGKGLEWVARIRTKPNDYATYYVDSVKGRFTISRDDSQSMVYLQMDNLKTEDTAMYYCTAFTEPDYWGQGVMVTVSS
VL: LIQPPSASVTLGSTVSLTCVGDELSKTYAHWYQQKPDKTIVSVIYKDSERPSGISDRFSGSSSGTTATLTIHGTLAEDEADYYCLSTYSDDNLPVFGGGTKLTVL
notes: Same rat IgG2b antibody as 46A9BO after deglycosylation; also called 46A9BO (deglycosylated)
Consider B2, for which the results for the binding result in assay [2] and in assay [3] were “no binding” and “binds”, respectively.

B3: Z14A7 monoclonal antibody (antibody, IgG2c, V domains shown)
VH: EVQLVETGGSLVQPGKSLKLTCATSGFTFSNAWMHWVRQSPEKQLEWVAQIKAKSNNYATYYAESVKGRFTISRDDSKSSIYLQMNSLKEEDTAIYYCLYGYYFDYWGQGVMVTVSS
VL: DVVMTQTPVSLPVSLGGQASISCRSSQSLIHSNGNTYLHWFLQKPGQSPQLLIYRISNRFSGVPDRFSGSGSGTDFTLKISRVESEDLGLYYCLQGTHLPFTFGSGTKLEIKR
notes: Rat hybridoma antibody, IgG2c
For the molecule B3, the binding result in assay [1] is given as “binds”.
